Results taken from patent US5976859.

## protease Q (enzyme)
β-casein
  percent of β-casein hydrolyzed, band intensity on SDS-PAGE: 87 % hydrolyzed
Azocoll
  hydrolysis of Azocoll, absorbance at 520 nm (% of original activity): 47
casein
  proteolytic activity (U/mg), casein as substrate: 4290 U/mg
